Data as given in publication PMC8690526, “Expression, purification and characterisation of a human anti-CDK4 single-chain variable fragment antibody” (BMC Biotechnology, 2021).

Legend:
Details in all cases: both partners purified
[1] = target: T1, bovine serum albumin (Bos taurus, UniProt P02769); assay: ELISA; non-competitive; plates coated with rhCDK4 or irrelevant proteins (rhPHD2, rhCOX-2, BSA); purified AK2 10 μg/mL in 3% non-fat milk in PBST, 2 h; detection by anti-V5 tag antibody and HRP-conjugated IgG, A492
T1 construct: serum albumin, bovine; also called BSA
T1 sequence (P02769 25-607): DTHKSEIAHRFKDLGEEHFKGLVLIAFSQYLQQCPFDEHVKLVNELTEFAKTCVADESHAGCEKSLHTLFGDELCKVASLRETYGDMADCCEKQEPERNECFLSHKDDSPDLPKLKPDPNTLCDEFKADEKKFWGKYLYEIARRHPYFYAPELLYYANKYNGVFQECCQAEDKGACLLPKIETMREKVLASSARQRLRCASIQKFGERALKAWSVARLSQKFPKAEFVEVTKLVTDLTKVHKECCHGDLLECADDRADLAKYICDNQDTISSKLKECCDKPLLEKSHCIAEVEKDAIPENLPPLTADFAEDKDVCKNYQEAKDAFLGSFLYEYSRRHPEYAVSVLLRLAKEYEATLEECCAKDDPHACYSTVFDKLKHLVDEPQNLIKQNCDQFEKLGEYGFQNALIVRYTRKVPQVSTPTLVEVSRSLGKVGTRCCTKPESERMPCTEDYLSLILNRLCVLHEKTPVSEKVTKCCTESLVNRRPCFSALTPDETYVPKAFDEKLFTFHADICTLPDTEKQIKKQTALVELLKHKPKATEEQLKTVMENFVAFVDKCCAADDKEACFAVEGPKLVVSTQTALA

[2] = target: T2, recombinant human prolyl hydroxylase 2 (Homo sapiens, UniProt Q9GZT9); assay: as above
T2 construct: prolyl hydroxylase 2 (PHD2), human, recombinant; also called rhPHD2; PHD2
T2 sequence (Q9GZT9 whole entry): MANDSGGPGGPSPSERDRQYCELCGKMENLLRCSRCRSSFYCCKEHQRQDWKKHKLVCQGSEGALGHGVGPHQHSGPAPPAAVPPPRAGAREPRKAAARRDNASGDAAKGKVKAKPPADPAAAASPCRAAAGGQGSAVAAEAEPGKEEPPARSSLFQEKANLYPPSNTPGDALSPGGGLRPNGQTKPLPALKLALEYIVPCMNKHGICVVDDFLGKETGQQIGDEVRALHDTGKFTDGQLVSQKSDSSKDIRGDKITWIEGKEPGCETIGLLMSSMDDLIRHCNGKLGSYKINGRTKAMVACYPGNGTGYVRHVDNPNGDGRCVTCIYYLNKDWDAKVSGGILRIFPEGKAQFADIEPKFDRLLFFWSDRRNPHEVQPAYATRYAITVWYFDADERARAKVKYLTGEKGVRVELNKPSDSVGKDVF

[3] = target: T3, recombinant human cyclin-dependent kinase 4 (Homo sapiens, UniProt P11802); assay: ELISA; non-competitive, affinity constant; plates coated with rhCDK4 at 8.0, 4.0, 2.0, 1.0 μg/mL; serial dilutions of AK2 (8.000-0.125 μg/mL); Kaff = (n − 1) / (n [Ab′] − [Ab]), n = [Ag] / [Ag′]; triplicates
T3 construct: cyclin-dependent kinase 4 (CDK4), human, recombinant; also called rhCDK4; CDK4
T3 sequence (P11802 whole entry): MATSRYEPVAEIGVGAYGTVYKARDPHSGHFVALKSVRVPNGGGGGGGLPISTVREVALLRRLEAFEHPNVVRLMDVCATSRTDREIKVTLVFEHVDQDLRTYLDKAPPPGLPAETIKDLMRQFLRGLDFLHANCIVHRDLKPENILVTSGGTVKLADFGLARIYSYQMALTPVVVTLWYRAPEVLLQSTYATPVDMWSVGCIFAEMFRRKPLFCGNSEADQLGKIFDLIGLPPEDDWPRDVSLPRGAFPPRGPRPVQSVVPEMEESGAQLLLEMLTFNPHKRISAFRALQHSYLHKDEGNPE

B1: human anti-CDK4 single-chain variable fragment antibody AK2 (scFv, V domains shown)
VH: QVQLQESGGGLVQPGGSLRLSCAASGFTFSSYAMSWVRQAPGKGLEWVSAISGSGGSTYYADSVEGRFTISRDNSKNTLYLQMNSLRAEDTAVYYCARRLTGFDYWGQGTLVTVSS
VL: QSALTQPPSASGSPGQSVTISCTGTSSDVGGYNYVSWYQQHPGKAPKLMIYDVSKRPSGVSNRFSGSKSGNTASLTIFGLQAEDEADYYCSSYTSSSTLVFGGGTKLTVL
notes: AK2-VH; linker peptide between the variable regions; AK2-VL; A pelB leader stands upstream of AK2 in the phagemid; About 30 kD on SDS-PAGE; also called soluble AK2; purified AK2; source: E. coli HB2151 (AK2/HB2151), IPTG-induced, secreted into the culture supernatant; used as culture supernatant or purified (ammonium sulphate precipitation, Ni2+-NTA, PD-10 desalting); …
binding result [1]: no binding (tested: 10 μg/mL AK2) | binding result [2]: no binding (tested: 10 μg/mL AK2) | Ka [3]: 2.48e+07 M⁻¹
